Values joined by “and” are separate entries in the source; they are usually repeats but may differ in a detail not shown here. Equal values may be shown once.
Experiments:
Assay in all cases: SPR; IgG covalently coupled (sNHS/EDC, printed at four densities, sodium acetate pH 4.5-5.0) on a carboxymethyldextran prism (IBIS MX96 array); FcγR injected as analyte, eight part threefold dilution series generally starting between 18 and 41 µM; running buffer PBS + 0.01% BSA + Tween 20; global kinetic analysis, 1:1 model; two experiments with different preparations of FcγR
[1] = biological target: recombinant monoclonal rhesus macaque IgG4 (MM IgG4), anti-CD8α (rhesus macaque (Macaca mulatta))
[2] = biological target: recombinant monoclonal rhesus macaque IgG3 (MM IgG3), anti-CD8α (rhesus macaque (Macaca mulatta))
[3] = biological target: recombinant monoclonal rhesus macaque IgG2 (MM IgG2), anti-CD8α (rhesus macaque (Macaca mulatta))
[4] = biological target: recombinant monoclonal rhesus macaque IgG1 (MM IgG1), anti-CD8α (rhesus macaque (Macaca mulatta))

Row | Substance | Kd [1] | Kd [2] | Kd [3] | Kd [4]
1 | human FcγRIIIb SH (from UniProt O75015 17-200) (receptor) | 465 µM and 340 µM | 740 µM and 350 µM | 530 µM and 80 µM | 15 µM and 9 µM
2 | human FcγRIIIa F158 (from UniProt P08637 17-254) (receptor) | 48 µM and 17 µM | 78 µM and 33 µM | 48 µM and 15 µM | 4 µM and 8 µM
3 | human FcγRIIIb NA2 (from UniProt O75015 17-200) (receptor) | 730 µM and 270 µM | 510 µM and 270 µM | – | 13 µM and 15 µM
4 | human FcγRIIa R131 (receptor) | 20 µM and 11 µM | 25 µM and 11 µM | 41 µM and 32 µM | 21 µM and 9 µM

Results, then the substance that gave them:

Row | Kd [1] | Kd [2] | Kd [3] | Kd [4] | Substance
5 | 33 µM and 32 µM | 46 µM and 38 µM | 90 µM and 125 µM | 53 µM and 36 µM | human FcγRIIb/c (from UniProt P31994 43-310) (receptor)
6 | 20 µM and 23 µM | 27 µM and 16 µM | 11 µM | 7 µM and 9 µM | human FcγRIIa H131 (from UniProt P12318 34-317) (receptor)
7 | 29 µM | 84 µM and 27 µM | 21 µM and 14 µM | 4 µM and 5 µM | human FcγRIIIa V158 (receptor)
8 | 500 µM and 120 µM | 700 µM and 210 µM | 700 µM and 250 µM | 18 µM and 14 µM | human FcγRIIIb NA1 (from UniProt O75015 17-200) (receptor)
